In the supplement of paper PMC10567573 one finds protein stability index data, which are given here for 94 variants.

B1: PTPN9 (parent)
chain: TQHLPRECLPENLGGYVKIDLATW
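Further: lentivirally expressed fusions sorted by FACS into six bins by GFP to DsRed ratio, PSI derived from sequencing read proportions per bin multiplied by bin number.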

Variants of B1 are the subject of the data set. Kind of data set: protein stability index of a GFP-peptide fusion (GPS, HEK-293T) (PSI 1-6); higher = more stable. To be noted: c terminus: a fixed tail appended.
For the variant TQHLPRECLPEALGGYVKIDLATW [N12A], the protein stability index worked out at 2.41.
The value for TQHLPRECLCENLGGYVKIDLATW [P10C] was 1.8; that for TQHLPRECLVENLGGYVKIDLATW [P10V] was 1.82; that for TQHLPRECLNENLGGYVKIDLATW [P10N] was 2.23.
Turning to TQHLPRECLLENLGGYVKIDLATW [P10L], the protein stability index was determined as 1.55.
As to TQHLPRECLEENLGGYVKIDLATW [P10E], the protein stability index was determined as 2.44.
As for TQHLPRECLKENLGGYVKIDLATW [P10K], the figure is 1.77; as for TQHLPRECLQENLGGYVKIDLATW [P10Q], 1.6.
The value for TQHLPRECLGENLGGYVKIDLATW [P10G] was 1.72.
As for TQHLPRECLIENLGGYVKIDLATW [P10I], the figure is 1.61; as for TQHLPRECLHENLGGYVKIDLATW [P10H], 1.91.
On to TQHLPRECLDENLGGYVKIDLATW [P10D], for which the protein stability index worked out at 1.88.
As for TQHLPRECLYENLGGYVKIDLATW [P10Y], the figure is 1.68; as for TQHLPRECLRENLGGYVKIDLATW [P10R], 2.24.
As for TQHLPRECLSENLGGYVKIDLATW [P10S], the figure is 2.49.
As for TQHLPRECLWENLGGYVKIDLATW [P10W], the figure is 1.85; as for TQHLPRECLAENLGGYVKIDLATW [P10A], 1.64.
On to TQHLPRECLMENLGGYVKIDLATW [P10M], for which the protein stability index came to 2.04.
For TQHLPRECLTENLGGYVKIDLATW [P10T], the protein stability index worked out at 1.62.
As for TQHLPRECLFENLGGYVKIDLATW [P10F], the figure is 1.97; as for TQHLPREHLPENLGGYVKIDLATW [C8H], 2.56.
With TQHLPRETLPENLGGYVKIDLATW [C8T], the protein stability index turned out to be 2.19.
As for TQHLPREELPENLGGYVKIDLATW [C8E], the figure is 2.24; as for TQHLPREVLPENLGGYVKIDLATW [C8V], 2.02.
The value for TQHLPRERLPENLGGYVKIDLATW [C8R] was 1.69.
As for TQHLPREKLPENLGGYVKIDLATW [C8K], the figure is 1.93.
Consider TQHLPREWLPENLGGYVKIDLATW [C8W], for which the protein stability index was 1.72.
With TQHLPRELLPENLGGYVKIDLATW [C8L], the protein stability index stood at 1.8.
As for TQHLPREFLPENLGGYVKIDLATW [C8F], the figure is 2.3; as for TQHLPREDLPENLGGYVKIDLATW [C8D], 2.48.
The value for TQHLPREQLPENLGGYVKIDLATW [C8Q] was 2.29; that for TQHLPRENLPENLGGYVKIDLATW [C8N] was 2.15.
As for TQHLPREGLPENLGGYVKIDLATW [C8G], the figure is 1.78.
In the case of TQHLPREPLPENLGGYVKIDLATW [C8P], the protein stability index is 2.16.
The value for TQHLPREALPENLGGYVKIDLATW [C8A] was 2.16.
As for TQHLPREILPENLGGYVKIDLATW [C8I], the figure is 1.7; as for TQHLPREMLPENLGGYVKIDLATW [C8M], 1.81; as for TQHLPREYLPENLGGYVKIDLATW [C8Y], 2.11.
As for TQHLPRESLPENLGGYVKIDLATW [C8S], the figure is 2.04; as for TQHLPRECLPNNLGGYVKIDLATW [E11N], 1.41.
As to TQHLPRECLPRNLGGYVKIDLATW [E11R], the protein stability index is 1.62.
The value for TQHLPRECLPMNLGGYVKIDLATW [E11M] was 2.46; that for TQHLPRECLPWNLGGYVKIDLATW [E11W] was 1.56; that for TQHLPRECLPLNLGGYVKIDLATW [E11L] was 2.73.
As for TQHLPRECLPVNLGGYVKIDLATW [E11V], the figure is 1.58; as for TQHLPRECLPSNLGGYVKIDLATW [E11S], 2.04.
The value for TQHLPRECLPKNLGGYVKIDLATW [E11K] was 1.79.
In the case of TQHLPRECLPGNLGGYVKIDLATW [E11G], the protein stability index worked out at 1.41.
The value for TQHLPRECLPCNLGGYVKIDLATW [E11C] was 1.52; that for TQHLPRECLPANLGGYVKIDLATW [E11A] was 1.97; that for TQHLPRECLPYNLGGYVKIDLATW [E11Y] was 1.77.
Regarding TQHLPRECLPTNLGGYVKIDLATW [E11T], the protein stability index was 1.45.
As for TQHLPRECLPPNLGGYVKIDLATW [E11P], the figure is 1.63; as for TQHLPRECLPINLGGYVKIDLATW [E11I], 1.89.
The value for TQHLPRECLPDNLGGYVKIDLATW [E11D] was 1.84.
The value for TQHLPRECLPHNLGGYVKIDLATW [E11H] was 1.48; that for TQHLPRECLPQNLGGYVKIDLATW [E11Q] was 1.71; that for TQHLPRECLPFNLGGYVKIDLATW [E11F] was 1.8.
TQHLPRWCLPENLGGYVKIDLATW [E7W]: the protein stability index is 1.93.
As for TQHLPRTCLPENLGGYVKIDLATW [E7T], the figure is 1.42; as for TQHLPRPCLPENLGGYVKIDLATW [E7P], 2.52; as for TQHLPRLCLPENLGGYVKIDLATW [E7L], 2.25.
The value for TQHLPRKCLPENLGGYVKIDLATW [E7K] was 1.52.
The value for TQHLPRRCLPENLGGYVKIDLATW [E7R] was 2.5; that for TQHLPRYCLPENLGGYVKIDLATW [E7Y] was 2.19; that for TQHLPRSCLPENLGGYVKIDLATW [E7S] was 1.94.
As to TQHLPRVCLPENLGGYVKIDLATW [E7V], the protein stability index worked out at 2.22.
As for TQHLPRMCLPENLGGYVKIDLATW [E7M], the figure is 2.33.
The value for TQHLPRGCLPENLGGYVKIDLATW [E7G] was 1.62; that for TQHLPRQCLPENLGGYVKIDLATW [E7Q] was 1.63.
As for TQHLPRICLPENLGGYVKIDLATW [E7I], the figure is 2.52; as for TQHLPRHCLPENLGGYVKIDLATW [E7H], 1.85.
As to TQHLPRFCLPENLGGYVKIDLATW [E7F], the protein stability index amounted to 1.74.
The value for TQHLPRDCLPENLGGYVKIDLATW [E7D] was 2.2; that for TQHLPRNCLPENLGGYVKIDLATW [E7N] was 1.86; that for TQHLPRECIPENLGGYVKIDLATW [L9I] was 1.85.
The value for TQHLPRECHPENLGGYVKIDLATW [L9H] was 1.73; that for TQHLPRECEPENLGGYVKIDLATW [L9E] was 2.22; that for TQHLPRECGPENLGGYVKIDLATW [L9G] was 1.61.
The value for TQHLPRECKPENLGGYVKIDLATW [L9K] was 2.47.
Regarding TQHLPRECYPENLGGYVKIDLATW [L9Y], the protein stability index was determined as 1.97.
As for TQHLPRECMPENLGGYVKIDLATW [L9M], the figure is 2.03; as for TQHLPRECVPENLGGYVKIDLATW [L9V], 1.65; as for TQHLPRECCPENLGGYVKIDLATW [L9C], 1.73.
The value for TQHLPRECDPENLGGYVKIDLATW [L9D] was 2.24.
As for TQHLPRECNPENLGGYVKIDLATW [L9N], the protein stability index turned out to be 1.97.
The value for TQHLPRECTPENLGGYVKIDLATW [L9T] was 2.01; that for TQHLPRECSPENLGGYVKIDLATW [L9S] was 1.75.
As to TQHLPRECAPENLGGYVKIDLATW [L9A], the protein stability index was found to be 2.55.
As for TQHLPRECPPENLGGYVKIDLATW [L9P], the figure is 2.18.
The value for TQHLPRECRPENLGGYVKIDLATW [L9R] was 1.77; that for TQHLPRECWPENLGGYVKIDLATW [L9W] was 1.9; that for TQHLPRECFPENLGGYVKIDLATW [L9F] was 1.94.
Turning to TQHLPRECQPENLGGYVKIDLATW [L9Q], the protein stability index is 2.01.
